The values that follow come from paper PMC8842248 (2022).

*: point of attachment. Farnesyl = CC(C)=CCC/C(C)=C/CC/C(C)=C/C*

For experiment [1], the target named is T1, PDE6D (phosphodiesterase 6 delta), wild type, polyhistidine tag removed (UniProt O43924 1-150). The experiment can be described thus: FP; replicate 3.
Experiment [2] concerns the target T1, PDE6D (phosphodiesterase 6 delta), wild …. The experiment can be described thus: FP; average of 3 replicates.
Experiment [3] shares this target. The experiment can be described thus: FP; + compound-1, replicate 1.
Experiment [4] shares this target. The experiment can be described thus: FP; + compound-1, replicate 2.
For experiment [5] the target is unchanged. The experiment can be described thus: FP; + compound-1, replicate 3.
For experiment [6] the target is unchanged. The experiment can be described thus: FP; in the presence of 500 uM Compound-2.
For experiment [7] the target is unchanged. The experiment can be described thus: FP; + compound-1, average of 3 replicates.

B1: fluorescein-labeled KRAS HVR peptide, FAM-KKKKKKSKTKC(OMe)-Far (peptide)
peptide: {FAM}-KKKKKKSKTKC(Farnesyl)-OMe
B1: the equilibrium dissociation constant (Kd) in experiment [1] turned out to be 1100 nM; in experiment [2], 1400 nM; in experiment [3] it was 1000 nM; in experiment [4] it was 1700 nM; in experiment [5], 1200 nM; in experiment [6], 55200 nM. Further, the Kd in experiment [7] was determined as 1300 nM.

In general, Kd refers to the concentration at which binding is half-saturated.
